Test results reported in PMC10628517, “CXCL17 binds efficaciously to glycosaminoglycans with the potential to modulate chemokine signaling” (Frontiers in Immunology, 2023).

Biological target: the molecule itself
Assay: reducing SDS-PAGE and Western blot; serial dilutions of recombinant CXCL17 (24–119), 1.25–10 μM, resolved by reducing SDS-PAGE and probed with anti-CXCL17; bands of 14 kDa and 28 kDa read as monomer and dimer; the 28-kDa species seen at 5 μM and above

B1: recombinant human CXCL17 (24–119) (natural protein, UniProt Q6UXB2 24-119, looked up)
chain: LNPGVARGHRDRGQASRRWLQEGGQECECKDWFLRAPRRKFMTVSGLPKKQCPCDHFKGNVKKTRHQRHHRKPNKHSRACQQFLKQCQLRSFALPL
notes: human CXCL17, residues 24-119 (Leu24–Leu119), the commercially available form without the predicted signal peptide; UniProt Q6UXB2; The text calls the protein on the blots commercially available; also called Leu24–Leu119 form of CXCL17; source: bought: R&D Systems; produced in E. coli
- ratio of monomer:dimer: ~3 monomer:dimer
